Our source for the absorbance (ELISA) values is patent publication EP1876240B1.

Experiment [1] concerns the target human GPVI extracellular region-human Fc fusion protein (hGPVI-hFc) (human). Briefly: ELISA on immobilized antigen; control.
Experiment [2] deals with rat GPVI-human Fc (rGPVI-hFc) (rat; mouse). The experiment can be described thus: ELISA on immobilized antigen; control. On the technique in general: An ELISA detects its analyte on a solid surface through an enzyme-linked reagent.

Sequence of human GPVI extracellular region-human Fc fusion protein (hGPVI-hFc) (human) (chain, as listed by the source limits assumed, form in doubt): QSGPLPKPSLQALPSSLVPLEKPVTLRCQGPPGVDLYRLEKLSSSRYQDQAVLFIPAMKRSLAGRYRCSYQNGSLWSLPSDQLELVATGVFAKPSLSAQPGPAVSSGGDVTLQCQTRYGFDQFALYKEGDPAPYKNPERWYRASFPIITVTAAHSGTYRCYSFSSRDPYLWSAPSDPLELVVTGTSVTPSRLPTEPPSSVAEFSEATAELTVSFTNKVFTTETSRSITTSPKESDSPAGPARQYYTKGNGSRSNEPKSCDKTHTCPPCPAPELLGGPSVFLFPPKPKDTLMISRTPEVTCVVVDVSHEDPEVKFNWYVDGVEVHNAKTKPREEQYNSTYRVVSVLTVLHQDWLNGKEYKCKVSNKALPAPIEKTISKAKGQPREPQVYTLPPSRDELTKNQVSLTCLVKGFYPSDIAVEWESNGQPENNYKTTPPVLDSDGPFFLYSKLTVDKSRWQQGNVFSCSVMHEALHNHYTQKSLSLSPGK

As to Normal Mouse IgG (antibody), the absorbance (ELISA) in experiment [1] is 0.026; in experiment [2] it was 0.123.
